Read-outs that look alike come from different tables or passages of the source.
How the values were obtained:
Experiment in all cases: SPR
[1] = biological target: T1, LILRB1 D1D4 (complete extracellular domain of LILRB1) (human, UniProt Q8NHL6 24-417)
[2] = biological target: T2, LILRB1 D1D2 (human, UniProt Q8NHL6 24-221)
[3] = biological target: T1, LILRB1 D1D4 (complete extracellular …); remark: listed apart in the source
[4] = biological target: T2, LILRB1 D1D2; remark: listed apart in the source

T2 sequence (Q8NHL6 24-221): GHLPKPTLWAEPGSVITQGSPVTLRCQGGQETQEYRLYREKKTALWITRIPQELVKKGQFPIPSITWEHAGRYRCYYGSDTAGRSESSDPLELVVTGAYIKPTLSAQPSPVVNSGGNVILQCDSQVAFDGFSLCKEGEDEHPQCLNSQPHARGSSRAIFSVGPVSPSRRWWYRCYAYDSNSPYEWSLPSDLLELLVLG
T1 sequence (Q8NHL6 24-417): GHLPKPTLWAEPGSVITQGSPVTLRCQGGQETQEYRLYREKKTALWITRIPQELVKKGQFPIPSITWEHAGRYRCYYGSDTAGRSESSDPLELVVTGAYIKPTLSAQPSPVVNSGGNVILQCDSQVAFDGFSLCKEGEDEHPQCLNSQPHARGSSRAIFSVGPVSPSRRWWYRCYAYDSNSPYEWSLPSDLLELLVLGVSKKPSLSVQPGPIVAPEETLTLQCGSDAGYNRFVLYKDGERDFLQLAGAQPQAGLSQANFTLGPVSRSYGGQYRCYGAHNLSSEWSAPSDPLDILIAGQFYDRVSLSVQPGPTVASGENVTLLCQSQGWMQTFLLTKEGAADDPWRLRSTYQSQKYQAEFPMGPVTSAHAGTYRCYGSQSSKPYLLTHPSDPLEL

B1: RIFIN PF3D7_1254800 variable region C223S (165-261) (domain or fragment)
chain: NYETINAFIAKTIEELEGIPGITKLFGAKISQFVTPAVFRKPMSLVETILSEKKKLCLSAANKNELLCRGMNPNVPETLPKKIEVAVNEVLSSVNDT
[1]
  Kd: 700 ± 5 nM
[2]
  Kd: 1100 ± 50 nM
[3]
  Kd: 1040 nM
  koff: 0.299 s⁻¹
  kon: 288000 M⁻¹ s⁻¹
[4]
  Kd: 1330 nM
  koff: 0.579 s⁻¹
  kon: 437000 M⁻¹ s⁻¹

B2: RIFIN PF3D7_1254800 variable region (residues 165-274) (domain or fragment)
chain: NYETINAFIAKTIEELEGIPGITKLFGAKISQFVTPAVFRKPMSLVETILSEKKKLCLCAANKNELLCRGMNPNVPETLPKKIEVAVNEVLSSVNDTWATATTPTTFFTN
[1]
  Kd: 570 ± 130 nM
[3]
  Kd: 1130 nM
  koff: 0.297 s⁻¹
  kon: 263000 M⁻¹ s⁻¹

B3: RIFIN PF3D7_0100400 variable region (165-329) (domain or fragment)
chain: VWKTTEIAAAMELAKQAGAAAGLKAGHLAGTNAVIEQLRTLGIYFVGDKLLETIIDVTNYMNVSFIYDKVYSHYTTSCTPSLVNDQLVGTFNTSDPFCNLVHSNLQGSFYRSSAQTIIYEKVEEAVAGAEQAATTKTAVMTPIYTTEFTAKNIAEVEAATTSYYT
[1]
  Kd: 4400 ± 3200 nM
[3]
  Kd: 14500 nM
  koff: 0.0592 s⁻¹
  kon: 4100 M⁻¹ s⁻¹
